Reference: the RNAGym collection of RNA variant scans (doi:10.1093/molbev/msab373)

B1: Azoarcus group I ribozyme (parent)
chain: GUGCCUUGCGCCGGGAAACCACGCAAGGGAUGGUGUCAAAUUCGGCGAAACCUAAGCGCCCGCCCGGGCGUAUGGCAACGCCGAGCCAAGCUUCGGCGCCUGCGCCGAUGAAGGUGUAGAGACUAGACGGCACCCACCUAAGGCAAACGCUAUGGUGAAGGCAUAGUCCAGGGAGUGGCGAAAGUCACACAAACCGG

Variants of: B1
Test: reverse-splicing fitness (ratio to wild type); higher = more active; in vitro selection; Mg2+ level not given
Summary of the method: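 An in vitro group I ribozyme library with randomized positions was T7-transcribed and gel-purified. In triplicate, 10 pmol RNA in EPPS pH 7.5 was reacted with 50 pmoles of a 30-nt RNA substrate for 1 h at 37 °C across several added MgCl2 levels (1–48 mM), then stopped with EDTA. Products were reverse transcribed from a substrate-complementary primer, PCR-amplified and sequenced (HiSeq 4000). Fitness is a variant's read proportion after selection over that before, normalised to wild type.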

| Variant | reverse-splicing fitness |
| --- | --- |
| A111C A120G A145C C150U C169A | 0.0284 |
| A111C A120G A145C C150U C169U | 0.0398 |
| A111C A120G A145C C150U C169G | 0.0492 |
| A111C A120G A145C C169A U176A | 0.0154 |
| A111C A120G A145C C169A U176C | 0.0169 |
| A111C A120G A145C C169A U176G | 0.00362 |
| A111C A120G A145C C150A C169U | 0.0139 |
| A111C A120G A145U C150G C169A | 0.0153 |
| A111C A120G A145U C150G C169U | 0.0209 |
| A111C A120G A145U C150G C169G | 0.0203 |
| A111C A120G A145C C150U U176C | 0.0189 |
| A111C A120G A145C C150U U176A | 0.0163 |
| A111C A120G A145C C150U U176G | 0.00427 |
| A111C A120G A145G C150U C169G U176C | 0.035 |
| A111C A120G A145G C150U C169G U176A | 0.0243 |
| A111C A120G A145G C150U C169G U176G | 0.00471 |
| A111C A120G A145C C150U C169A U176A | 0.0104 |
| A111C A120G A145C C150U C169A U176C | 0.011 |
| A111C A120G A145C C150U C169A U176G | 0.00455 |
| A111C A120G A145G C150A C169G U176G | 0.00523 |
| A111C A120G A145G C150A C169G U176A | 0.0195 |

| Variant | reverse-splicing fitness |
| --- | --- |
| A111C A120G A145G C150A C169G U176C | 0.0342 |
| A111C A120G A145G C150A C169U U176G | 0.00466 |
| A111C A120G A145G C150A C169U U176A | 0.0227 |
| A111C A120G A145G C150A C169U U176C | 0.0241 |
| A111C A120G A145G C169A U176A | 0.0264 |
| A111C A120G A145G C169A U176C | 0.0401 |
| A111C A120G A145G C169A U176G | 0.00458 |
| A111C A120G A145C C169G U176A | 0.0348 |
| A111C A120G A145C C169G U176G | 0.00459 |
| A111C A120G A145C C169G U176C | 0.0399 |
| A111C A120G A145C U176C | 0.0361 |
| A111C A120G A145C U176A | 0.0323 |
| A111C A120G A145C U176G | 0.00548 |
| A111C A120G A145G C150G U176G | 0.00613 |
| A111C A120G A145G C150G U176A | 0.00942 |
| A111C A120G A145G C150G U176C | 0.0155 |
| A111C A120G A145C C150A C169G U176G | 0.00527 |
| A111C A120G A145C C150A C169G U176C | 0.0161 |
| A111C A120G A145U C150A C169G U176A | 0.0123 |
| A111C A120G A145U C150A C169G U176C | 0.0176 |
| A111C A120G A145U C150A C169G U176G | 0.00467 |

| Variant | reverse-splicing fitness |
| --- | --- |
| A111C A120G A145U C150A C169A U176G | 0.00497 |
| A111C A120G A145U C150A C169A U176A | 0.0109 |
| A111C A120G A145U C150A C169A U176C | 0.011 |
| A111C A120G A145C C150G C169U U176C | 0.013 |
| A111C A120G A145C C150G C169U U176A | 0.0111 |
| A111C A120G A145C C150G C169U U176G | 0.004 |
| A111C A120G A145G C150U C169U U176G | 0.00498 |
| A111C A120G A145G C150U C169U U176C | 0.0446 |
| A111C A120G A145G C150U C169U U176A | 0.0338 |
| A111C A120G A145G U176C | 0.0456 |
| A111C A120G A145G U176G | 0.00588 |
| A111C A120G A145G U176A | 0.0379 |
| A111C A120G A145G C150G C169G U176A | 0.0101 |
| A111C A120G A145G C150G C169G U176G | 0.00543 |
| A111C A120G A145G C150G C169G U176C | 0.0114 |
| A111C A120G A145G C150G C169U | 0.0264 |
| A111C A120G A145G C150G C169A | 0.0166 |
| A111C A120G A145G C150G C169G | 0.0248 |
| A111C A120G A145U C150A C169G | 0.0221 |
| A111C A120G A145U C150A C169A | 0.0145 |
| A111C A120G A145U C150A C169U | 0.018 |

| Variant | reverse-splicing fitness |
| --- | --- |
| A111C A120G A145G C150U C169A U176G | 0.00548 |
| A111C A120G A145G C150U C169A U176C | 0.0222 |
| A111C A120G A145G C150U C169A U176A | 0.0192 |
| A111C A120G A145C C150G U176A | 0.0112 |
| A111C A120G A145C C150G U176G | 0.00301 |
| A111C A120G A145C C150G U176C | 0.0168 |
| A111C A120G A145U C150A U176G | 0.0043 |
| A111C A120G A145U C150A U176C | 0.0176 |
| A111C A120G A145U C150A U176A | 0.0126 |
| A111C A120G A145G C150A C169A | 0.02 |
| A111C A120G A145G C150A C169G | 0.0313 |
| A111C A120G A145G C150A C169U | 0.0326 |
| A111C A120G A145C C150A C169U U176G | 0.00392 |
| A111C A120G A145C C150A C169U U176A | 0.0178 |
| A111C A120G A145C C150A C169U U176C | 0.00924 |
| A111C A120G A145G C150A C169A U176A | 0.0174 |
| A111C A120G A145G C150A C169A U176G | 0.0058 |
| A111C A120G A145G C150A C169A U176C | 0.022 |
| A111C A120G A145U C150G C169U U176G | 0.00442 |
| A111C A120G A145U C150G C169U U176A | 0.0111 |
| A111C A120G A145U C150G C169U U176C | 0.0151 |
